Numbering of substitutions follows the chain as printed. Names and notes keep the numbering of the source.

Results on 12 molecules are retold here after patent publication US20120040474A1 (published 2012).

B1: PNGase F, Peptide-N4-(acetyl-β-D-glucosaminyl)-asparagine amidase, wild type (D60) (protein)
chain: APADNTVNIKTFDKVKNAFGDGLSQSAEGTFTFPADVTTVKTIKMFIKNECPNKTCDEWDRYANVYVKNKTTGEWYEIGRFITPYWVGTEKLPRGLEIDVTDFKSLLSGNTELKIYTETWLAKGREYSVDFDIVYGTPDYKYSAVVPVIQYNKSSIDGVPYGKAHTLGLKKNIQLPTNTEKAYLRTTISGWGHAKPYDAGSRGCAEWCFRTHTIAINNANTFQHQLGALGCSANPINNQSPGNWAPDRAGWCPGMAVPTRIDVLNNSLTGSTFSYEYKFQSWTNNGTNGDAFYAISSFVIAKSNTPISAPVVTN
B2: PNGase F D60A mutant (enzyme)
chain: B1 chain with D60A
B3: PNGase F D60A/D57A mutant (enzyme)
chain: B1 chain with D57A, D60A
B4: PNGase F D60N mutant (enzyme)
chain: B1 chain with D60N
B5: PNGase F D60A/E206K mutant (enzyme)
chain: B1 chain with D60A, E206K
B6: denatured glycoprotein RNase B (enzyme)
chain: KETAAAKFERQHMDSSTSAASSSNYCNQMMKSRNLTKDRCKPVNTFVHESLADVQAVCSQKNVACKNGQTNCYQSYSTMSITDCRETGSSKYPNCAYKTTQANKHIIVACEGNPYVPVHFDASV
modifications: a single N-glycosylation site predominantly occupied by high mannose oligosaccharides; protein denatured
notes: Recognition by the PNGase F mutants and by Con A goes through the N-linked glycan on the protein; also called denatured RNase B; dRNAse B
B7: PNGase F D60A/E206A mutant (enzyme)
chain: B1 chain with D60A, E206A
B8: PNGase F D60A/E206Q mutant (enzyme)
chain: B1 chain with D60A, E206Q
B9: PNGase F D60A/R125A mutant (enzyme)
chain: B1 chain with D60A, R125A
B10: PNGase F E206A mutant (enzyme)
chain: B1 chain with E206A
B11: PNGase F D60A/E206R mutant (enzyme)
chain: B1 chain with D60A, E206R

Series [1] has as its target denatured glycoprotein RNase B (UniProt P61823). The series can be described thus: reference value of Table 7.
For series [2], the target named is T1, denatured glycoprotein RNase B, P61823.
T1 chain: B6 chain
In words: enzyme Km of the wild type, used as reference for the SPR Kd values.

In series [3] the target is B6. In words: SPR Kd against wild type Km.
The target in series [4] is B8. In words: SPR, denatured RNase B.
Series [5] concerns the target B3. The series can be described thus: SPR, denatured RNase B.
Series [6] deals with B2. In words: SPR, denatured RNase B.
The target in series [7] is B4. In words: SPR, denatured RNase B.
For series [8], the target named is B10. In words: SPR, denatured RNase B. For orientation: In SPR one partner is held on a chip, and binding of the other changes the refractive index at the surface.
The target of series [9] is B7. The series can be described thus: SPR, denatured RNase B.
Series [10] concerns the target B11. The series can be described thus: SPR, denatured RNase B.
In series [11] the target is B5. The series can be described thus: SPR, denatured RNase B.
Series [12] deals with B9. The series can be described thus: SPR, denatured RNase B.

“PNGase F, Peptide-N4-(acetyl-β-D-glucosaminyl)-asparagine amidase, wild type (D60) (from UniProt P21163 41-354) (enzyme)”: the Relative Enhancement (relative to wild type) in series [1] was found to be 1 fold.
On to B1, for which the Km (printed in the Kd column, footnote a) in [2] was 6400 µM.
B2: the “Relative Enhancement (relative to wild type)” value (shortened to “Relative Enhancement”) in series [3] came to 580 fold.
On the same count and under the same terms, as for B3, the figure is 910 fold; as for B4, 290 fold.
The same measure, in the same setting: the same measure for B5: 360 fold.
For B6, the Kd (as a rule, the free concentration of one partner at which half of the binding sites on the other are occupied at equilibrium, for simple one-to-one binding) in series [4] amounted to 18 µM; in series [5], 7 µM; in [6], 11 µM; in series [7], 21 µM; in series [8], 11 µM; in series [9] it was 20 µM. In addition, the results for the Kd in series [10], in series [11] and in [12] were 27 µM, 18 µM and 18 µM, respectively.
Regarding B7, the “Relative Enhancement” value in series [3] came out at 320 fold.
Consider B8, for which the “Relative Enhancement” value in series [3] was 360 fold.
Take B9: the “Relative Enhancement” value in series [3] was determined as 360 fold.
On the same count and under the same terms, as for B10, the figure is 580 fold; as for B11, 240 fold.
